Consider one molecule from PMC12872393 (Life Science Alliance, 2026).

No end group written: not given here. AF488 = AF Dye 488 fluorescent label

One test deals with T1, His6-GATE16 (UniProt P60520 1-117).
T1 construct: GATE16, LC3/GABARAP-family protein; also called monomeric His6-GATE16; His6-tagged GATE16; source: E. coli BL21 Tuner DE3, purified (Ni-NTA, SEC)
Nature of the test: fluorescence polarisation; direct anisotropy: 10 nM labeled ATG4B peptide with increasing His6-GATE16; 20 mM Tris, 150 mM NaCl, pH 7.5; RT; apparent KD. The settings on record: both partners purified. Background: In fluorescence polarisation assays a small probe gives low polarisation when free and higher when bound to something large.

Test [1] has as its target T2, monomeric GATE16 (mGATE16) (UniProt P60520 1-117).
T2 construct: GATE16, LC3/GABARAP-family protein, from pGex-4T-2_GATE-16 after thrombin cleavage; source: E. coli BL21 Tuner DE3, purified as GST-GATE16, GST removed with thrombin, SEC
Nature of the test: fluorescence polarisation; competition anisotropy: 1.5 μM mGATE16 with 10 nM labeled ATG4B peptide; increasing unlabeled peptide; 20 mM Tris, 150 mM NaCl, pH 7.5; RT. The settings on record: both partners purified.

T2 sequence (P60520 whole entry): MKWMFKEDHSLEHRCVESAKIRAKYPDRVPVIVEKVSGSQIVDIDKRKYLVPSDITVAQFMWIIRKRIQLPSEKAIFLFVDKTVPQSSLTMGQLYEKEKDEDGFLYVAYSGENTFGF
T1 sequence (P60520 whole entry): as above

B1: dye-labeled ATG4B LIR peptide (EDEDFEILSL) (peptide)
peptide: AF488-EDEDFEILSL
notes: also called fluorescently labeled ATG4B peptide; labeled ATG4B peptide; source: synthetic peptide (MIT Biopolymers Laboratory, HPLC-purified)
Consider B1, for which the binding result (in the test with His6-GATE16; in test [1]) was “binds” throughout.
